Reference: article PMC6863704 (Protein Science : A Publication of the Protein Society, 2019)

Target: the molecule itself
Assay: NMR

B1: p50 dimerization domain of NFκB1 (residues 241–351), long construct with non-native N-terminal extension (domain or fragment, mouse)
chain: VGTGSNDDDDKAPNASNLKIVRMDRTAGCVTGGEEIYLLCDKVQKDDIQIRFYEEEENGGVWEGFGDFSPTDVHRQFAIVFKTPKYKDVNITKPASVFVQLRRKSDLETSEPKPFLYYPEI
B1 was tested, and the “stoichiometry N” value was 2.
